Experimental data from article PMC5523735.
Read-outs that look alike come from different tables or passages of the source.

Legend:
[1] = proBNP/BNP ratio in NRVM medium; conditions: glycan lost
[2] = proBNP/BNP ratio in human iPS-CM medium; conditions: glycan lost; control: control oligo
[3] = gel filtration: proBNP peak relative to mature BNP peak; conditions: glycan lost; control: WT-proBNP
[4] = proBNP/BNP ratio in cardiac fibroblast medium; conditions: glycan lost; control: WT-proBNP
[5] = control: control oligo, WT-proBNP

Substance | other: proteolytic processing ([1]; control: WT-proBNP) | other (O-glycosylation other at T48) | other (O-glycosylation other at T71) | further results
human proBNP (prohormone for brain natriuretic peptide): GALNT1 siRNA | – | – | – | other: proteolytic processing [1, 5]: increases; other: proteolytic processing [2]: increases
human proBNP (prohormone for brain natriuretic peptide): GALNT2 siRNA | – | – | – | other: proteolytic processing [1, 5]: increases; other: proteolytic processing [2]: increases
human proBNP (prohormone for brain natriuretic peptide): T48/T71glyco | increases | – | – | –
human proBNP (prohormone for brain natriuretic peptide): T48A | increases | – | – | other: proteolytic processing [3]: increases; other: proteolytic processing [4]: increases
human proBNP (prohormone for brain natriuretic peptide): T48A/T71A | increases | – | – | –
human proBNP (prohormone for brain natriuretic peptide): T71A | increases | – | – | other: proteolytic processing [3]: increases; other: proteolytic processing [4]: increases
human proBNP (prohormone for brain natriuretic peptide): non-glyco | increases | – | – | –
proBNP (prohormone for brain natriuretic peptide): GALNT1 or GALNT2 siRNA knockdown | – | increases | increases | –
proBNP (prohormone for brain natriuretic peptide): T48/T71glyco (T36A, S37A, S44A, S53A, T58A) | – | – | – | other (O-glycosylation other at S37): increases; other (O-glycosylation other at S44): increases; other (O-glycosylation other at S53): increases; other (O-glycosylation other at T36): increases; other (O-glycosylation other at T58): increases
proBNP (prohormone for brain natriuretic peptide): T48A | – | increases | – | –
proBNP (prohormone for brain natriuretic peptide): T48A (cardiac fibroblasts) | – | increases | – | –
proBNP (prohormone for brain natriuretic peptide): T48A/T71A | – | increases | increases | –
proBNP (prohormone for brain natriuretic peptide): T71A | – | – | increases | –
proBNP (prohormone for brain natriuretic peptide): T71A (cardiac fibroblasts) | – | – | increases | –
proBNP (prohormone for brain natriuretic peptide): non-glyco versus T48glyco (only Thr48 preserved, other 6 sites Ala) | – | increases | – | –
proBNP (prohormone for brain natriuretic peptide): non-glyco versus T71glyco (only Thr71 preserved, other 6 sites Ala) | – | – | increases | –
